Data published in article doi:10.1101/563890 (bioRxiv, 2019).

Target: CXCL12 (UniProt P48061-2 22-89)
Experiment: MST

Chain of CXCL12 (P48061 22-89): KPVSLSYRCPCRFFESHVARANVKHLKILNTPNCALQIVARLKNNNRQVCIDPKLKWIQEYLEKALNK

Kd: 4 ± 0.4 µM
B1: 6His-tagged full-length HMGB1 (residues 1-214), labelled with NT647 (natural protein, UniProt P63159 1-215, looked up)
chain: MGKGDPKKPRGKMSSYAFFVQTCREEHKKKHPDASVNFSEFSKKCSERWKTMSAKEKGKFEDMAKADKARYEREMKTYIPPKGETKKKFKDPNAPKRPPSAFFLFCSEYRPKIKGEHPGLSIGDVAKKLGEMWNNTAADDKQPYEKKAAKLKEKYEKDIAAYRAKGKPDAAKKGVVKAEKSKKKKEEEDDEEDEEDEEEEEEEEDEDEEEDDDDE
modifications: non-covalently labelled with the NT647 fluorescence dye
